Data published in patent US20240317834A1, “COMPOSITIONS AND METHODS FOR NEUROLOGICAL DISEASES” (CODA BIOTHERAPEUTICS, INC., priority 2020, published 2024).

System: Lenti-X 293T cells
Experiment: YFP fluorescence quenching anion reporter plate reader assay of engineered receptors stimulated with acetylcholine or a non-native ligand
Type: cell-based
In short: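 Lenti-X 293T cells carrying a YFP anion reporter were transiently transfected with channel DNA and assayed the next day in HEPES-buffered ECS at pH 7.2. Ligand (acetylcholine or non-native ligand) was added in NaI-substituted ECS. Percent quench was the mean of the last 10 s relative to the 15 s pre-addition baseline.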

B1: CODA945: engineered chimeric LGIC receptor, Q139E in SEQ ID NO: 33 (protein)
chain: MRCSPGGVWLALAASLLHVSLQGEFQRKLYKELVKNYNPLERPVANDSQPLTVYFSLSLLQIMDVDEKNQVLTTNIWLQMSWTDHYLQWNVSEYPGVKTVRFPDGQIWKPDILLYNSADERFDATFHTNVLVNSSGHCEYLPPGIFKSSCPMDLKNFPMDVQTCKLKFGSWSYGGWSLDLQMQEADISGYIPNGEWDLVGIPGKRSERFYECCKEPYPDVTFTVTMRRRMGYYLIQMYIPSLLIVILSWISFWINMDAAPARVGLGITTVLTMTTQSSGSRASLPKVSYVKAIDIWMAVCLLFVFSALLEYAAVNFVSRQHKELLRFRRKRRHHKSPMLNLFQEDEAGEGRFNFSAYGMGPACLQAKDGISVKGANNSNTTNPPPAPSKSPEEMRKLFIQRAKKIDKISRIGFPMAFLIFNMFYWIIYKIVRREDVHNQ
modifications: synthetic sequence of chimeric LGIC
YFP fluorescence quenching using CNL001 (1 nM CNL001, first column): 6.65%
YFP fluorescence quenching using CNL001 (1 nM CNL001, second column): 13.512%
YFP fluorescence quenching using TC-5619/Bradanicline (3 nM brd): 14.15%
YFP fluorescence quenching using Varenicline (3 nM var, first column): 8.207
YFP fluorescence quenching using Varenicline (3 nM var, second column): 7.835
YFP fluorescence quenching using CNL001 (10 nM CNL001, first column): 78.678%
YFP fluorescence quenching using CNL001 (10 nM CNL001, second column): 82.723%
YFP fluorescence quenching using TC-5619/Bradanicline (30 nM brd): 78.18%
YFP fluorescence quenching using Facinicline (30 nM fac): −7.16
YFP fluorescence quenching using Varenicline (30 nM var, first column): 9.509
YFP fluorescence quenching using Varenicline (30 nM var, second column): 10.204
YFP fluorescence quenching using CNL001 (50 nM CNL001, first column): 84.91%
YFP fluorescence quenching using CNL001 (50 nM CNL001, second column): 84.849%
YFP fluorescence quenching using ABT-126 (50 nM abt): −8.27%
YFP fluorescence quenching using CNL001 (100 nM CNL001, first column): 85.046%
YFP fluorescence quenching using CNL001 (100 nM CNL001, second column): 84.642%
YFP fluorescence quenching using CNL002 (100 nM CNL002): 60.5%
YFP fluorescence quenching using ABT-126 (100 nM abt): 4.76%
YFP fluorescence quenching using AZD-0328 (100 nM azd0328): −5.79%
YFP fluorescence quenching using ABT-126 (300 nM abt): 30.88%
YFP fluorescence quenching using AZD-0328 (300 nM azd0328): 58.47%
YFP fluorescence quenching using TC-5619/Bradanicline (300 nM brd): 76.8%
YFP fluorescence quenching using Facinicline (300 nM fac): 71.17
YFP fluorescence quenching using Varenicline (300 nM var, first column): 9.818
YFP fluorescence quenching using Varenicline (300 nM var, second column): 12.539
YFP fluorescence quenching using Varenicline (500 nM var, first column): 16.762
YFP fluorescence quenching using Varenicline (500 nM var, second column): 15.21
YFP fluorescence quenching using CNL001 (1 uM CNL001, first column): 85.493%
YFP fluorescence quenching using CNL001 (1 uM CNL001, second column): 86.071%
YFP fluorescence quenching using CNL002 (1 uM CNL002): 75.41%
YFP fluorescence quenching using ABT-126 (1 uM abt): 60.66%
YFP fluorescence quenching using TC-6987 (1 uM tc6987): −0.97
YFP fluorescence quenching using Varenicline (1 uM var, first column): 48.292
YFP fluorescence quenching using Varenicline (1 uM var, second column): 54.096
YFP fluorescence quenching using TC-6987 (10 uM tc6987): 21.53
YFP fluorescence quenching using CNL002 (30 uM CNL002): 77.46%
YFP fluorescence quenching using AZD-0328 (30 uM azd0328): 66.57%
YFP fluorescence quenching using Facinicline (30 uM fac): 72.14
YFP fluorescence quenching using TC-6987 (500 uM tc6987): 7.39
percent quench of YFP fluorescence, 30 nM TC-6683 (TC-6683 30 nM): −26.47%
percent quench of YFP fluorescence, 300 nM TC-6683 (TC-6683 300 nM): −18.62%
percent quench of YFP fluorescence, 3 uM TC-6683 (TC-6683 3 uM): −13.39%
percent quench of YFP fluorescence, 30 uM TC-6683 (TC-6683 30 uM): −16.6%
percent quench of YFP fluorescence, 100 uM TC-6683 (TC-6683 100 uM): −12.89%
percent quench of YFP fluorescence, 10 uM ach (acetylcholine 10 uM): −1.25%
percent quench of YFP fluorescence, 100 uM ach (acetylcholine 100 uM): 71.21%
percent quench of YFP fluorescence, 1 mM ach (acetylcholine 1 mM): 71.79%
percent quench of YFP fluorescence, 3 mM ach (acetylcholine 3 mM): 76.04%
